Literature values, collected in publication PMC11970764.

Biological target: HIF-1α PAS-B (Homo sapiens) (UniProt Q16665)
Experiment: ITC

UniProt Q16665, sequence (Q16665 238-349): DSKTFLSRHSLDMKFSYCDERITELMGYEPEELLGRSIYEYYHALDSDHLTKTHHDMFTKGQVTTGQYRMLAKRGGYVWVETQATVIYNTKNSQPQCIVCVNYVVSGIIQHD

Cyclo-C(TAT)LLFVY
Kd: 124 nM
